Data reported in the supplement of paper PMC9428881.
± gives the standard error.

Experiment: background-corrected fluorescence of 3'-dye-labeled ssDNA relative to brightest sequence (3'-GCGCG) (fraction); higher = brighter dye fluorescence (less quenching)
Settings: dye: Cy5 (3' terminal)
Summary of the method: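 Arrays of single-stranded DNA, with a 3' Cy3 or Cy5 dye beside each of 1024 permuted pentamers, were built on glass slides through light-directed phosphoramidite synthesis. They were washed for 2 h at r.t. in acetonitrile and scanned at 532 or 635 nm, once before and once after overnight ethylenediamine/ethanol deprotection. Fluorescence is reported after subtracting unlabeled-oligo background and normalizing to the brightest sequence. Averages cover 10 features per array and at least 3 syntheses.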

**Q.** For “TTTTTTGCGCATGAGCATGCTTTTTTTTTTTTTTTATCTA”, which background-corrected fluorescence is on record?
**A.** 0.368 ± 0.025

**Q.** Which background-corrected fluorescence does the source give for “TTTTTTGCGCATGATCAGCATTTTTTTTTTTTTTTATCGT [TGCTA]” here?
**A.** 0.449 ± 0.027

**Q.** Which background-corrected fluorescence does the source give for “TTTTTTGCGCATGATCATCATTTTTTTTTTTTTTTATCGG [GGCTA]” here?
**A.** 0.504 ± 0.027

**Q.** With “TTTTTTGCGCATGATCATGATTTTTTTTTTTTTTTATCGC [CGCTA]” as the sequence, how does the background-corrected fluorescence read?
**A.** 0.439 ± 0.02

**Q.** For “TTTTTTGCGCATGATCATGCTTTTTTTTTTTTTTTATCGA [AGCTA]”, which background-corrected fluorescence is on record?
**A.** 0.517 ± 0.043

**Q.** For “TTTTTTGCGCATGATGAGCATTTTTTTTTTTTTTTATCCT [TCCTA]”, which background-corrected fluorescence is on record?
**A.** 0.348 ± 0.02

**Q.** With “TTTTTTGCGCATGATGATCATTTTTTTTTTTTTTTATCCG [GCCTA]” as the sequence, how does the background-corrected fluorescence read?
**A.** 0.427 ± 0.035

**Q.** Which background-corrected fluorescence does the source give for “TTTTTTGCGCATGATGATGATTTTTTTTTTTTTTTATCCC [CCCTA]” here?
**A.** 0.247 ± 0.016

**Q.** Which background-corrected fluorescence does the source give for “TTTTTTGCGCATGATGATGCTTTTTTTTTTTTTTTATCCA [ACCTA]” here?
**A.** 0.373 ± 0.038

**Q.** Which background-corrected fluorescence does the source give for “TTTTTTGCGCATGATGCGCATTTTTTTTTTTTTTTATCAT [TACTA]” here?
**A.** 0.408 ± 0.028

**Q.** With “TTTTTTGCGCATGATGCTCATTTTTTTTTTTTTTTATCAG [GACTA]” as the sequence, how does the background-corrected fluorescence read?
**A.** 0.411 ± 0.03

**Q.** For “TTTTTTGCGCATGATGCTGATTTTTTTTTTTTTTTATCAC [CACTA]”, which background-corrected fluorescence is on record?
**A.** 0.325 ± 0.032

**Q.** With “TTTTTTGCGCATGATGCTGCTTTTTTTTTTTTTTTATCAA [AACTA]” as the sequence, how does the background-corrected fluorescence read?
**A.** 0.411 ± 0.035

**Q.** For “TTTTTTGCGCATGCGCAGCATTTTTTTTTTTTTTTATATT”, which background-corrected fluorescence is on record?
**A.** 0.392 ± 0.024

**Q.** For “TTTTTTGCGCATGCGCATCATTTTTTTTTTTTTTTATATG [GTATA]”, which background-corrected fluorescence is on record?
**A.** 0.407 ± 0.024

**Q.** Which background-corrected fluorescence does the source give for “TTTTTTGCGCATGCGCATGATTTTTTTTTTTTTTTATATC [CTATA]” here?
**A.** 0.322 ± 0.017

**Q.** Which background-corrected fluorescence does the source give for “TTTTTTGCGCATGCGCATGCTTTTTTTTTTTTTTTATATA” here?
**A.** 0.431 ± 0.042

**Q.** For “TTTTTTGCGCATGCTCAGCATTTTTTTTTTTTTTTATAGT [TGATA]”, which background-corrected fluorescence is on record?
**A.** 0.482 ± 0.041

**Q.** Which background-corrected fluorescence does the source give for “TTTTTTGCGCATGCTCATCATTTTTTTTTTTTTTTATAGG [GGATA]” here?
**A.** 0.516 ± 0.03

**Q.** For “TTTTTTGCGCATGCTCATGATTTTTTTTTTTTTTTATAGC [CGATA]”, which background-corrected fluorescence is on record?
**A.** 0.407 ± 0.031

**Q.** For “TTTTTTGCGCATGCTCATGCTTTTTTTTTTTTTTTATAGA [AGATA]”, which background-corrected fluorescence is on record?
**A.** 0.489 ± 0.045

**Q.** For “TTTTTTGCGCATGCTGAGCATTTTTTTTTTTTTTTATACT [TCATA]”, which background-corrected fluorescence is on record?
**A.** 0.378 ± 0.019

**Q.** With “TTTTTTGCGCATGCTGATCATTTTTTTTTTTTTTTATACG [GCATA]” as the sequence, how does the background-corrected fluorescence read?
**A.** 0.43 ± 0.029

**Q.** With “TTTTTTGCGCATGCTGATGATTTTTTTTTTTTTTTATACC [CCATA]” as the sequence, how does the background-corrected fluorescence read?
**A.** 0.295 ± 0.018

**Q.** For “TTTTTTGCGCATGCTGATGCTTTTTTTTTTTTTTTATACA [ACATA]”, which background-corrected fluorescence is on record?
**A.** 0.372 ± 0.024

**Q.** For “TTTTTTGCGCATGCTGCGCATTTTTTTTTTTTTTTATAAT [TAATA]”, which background-corrected fluorescence is on record?
**A.** 0.418 ± 0.026

**Q.** For “TTTTTTGCGCATGCTGCTCATTTTTTTTTTTTTTTATAAG [GAATA]”, which background-corrected fluorescence is on record?
**A.** 0.429 ± 0.031

**Q.** For “TTTTTTGCGCATGCTGCTGATTTTTTTTTTTTTTTATAAC [CAATA]”, which background-corrected fluorescence is on record?
**A.** 0.327 ± 0.023

**Q.** Which background-corrected fluorescence does the source give for “TTTTTTGCGCATGCTGCTGCTTTTTTTTTTTTTTTATAAA [AAATA]” here?
**A.** 0.507 ± 0.069

**Q.** For “TTTTTTGCTCAGCAGCAGCATTTTTTTTTTTTTTTAGTTT [TTTGA]”, which background-corrected fluorescence is on record?
**A.** 0.404 ± 0.022

**Q.** Which background-corrected fluorescence does the source give for “TTTTTTGCTCAGCAGCATCATTTTTTTTTTTTTTTAGTTG [GTTGA]” here?
**A.** 0.408 ± 0.034

**Q.** With “TTTTTTGCTCAGCAGCATGATTTTTTTTTTTTTTTAGTTC [CTTGA]” as the sequence, how does the background-corrected fluorescence read?
**A.** 0.335 ± 0.025

**Q.** For “TTTTTTGCTCAGCAGCATGCTTTTTTTTTTTTTTTAGTTA [ATTGA]”, which background-corrected fluorescence is on record?
**A.** 0.409 ± 0.016

**Q.** With “TTTTTTGCTCAGCATCAGCATTTTTTTTTTTTTTTAGTGT [TGTGA]” as the sequence, how does the background-corrected fluorescence read?
**A.** 0.474 ± 0.033

**Q.** For “TTTTTTGCTCAGCATCATCATTTTTTTTTTTTTTTAGTGG [GGTGA]”, which background-corrected fluorescence is on record?
**A.** 0.546 ± 0.076

**Q.** For “TTTTTTGCTCAGCATCATGATTTTTTTTTTTTTTTAGTGC [CGTGA]”, which background-corrected fluorescence is on record?
**A.** 0.405 ± 0.024

**Q.** With “TTTTTTGCTCAGCATCATGCTTTTTTTTTTTTTTTAGTGA” as the sequence, how does the background-corrected fluorescence read?
**A.** 0.536 ± 0.037

**Q.** Which background-corrected fluorescence does the source give for “TTTTTTGCTCAGCATGAGCATTTTTTTTTTTTTTTAGTCT [TCTGA]” here?
**A.** 0.368 ± 0.029

**Q.** With “TTTTTTGCTCAGCATGATCATTTTTTTTTTTTTTTAGTCG [GCTGA]” as the sequence, how does the background-corrected fluorescence read?
**A.** 0.444 ± 0.036

**Q.** Which background-corrected fluorescence does the source give for “TTTTTTGCTCAGCATGATGATTTTTTTTTTTTTTTAGTCC [CCTGA]” here?
**A.** 0.329 ± 0.04

**Q.** For “TTTTTTGCTCAGCATGATGCTTTTTTTTTTTTTTTAGTCA [ACTGA]”, which background-corrected fluorescence is on record?
**A.** 0.407 ± 0.029

**Q.** Which background-corrected fluorescence does the source give for “TTTTTTGCTCAGCATGCGCATTTTTTTTTTTTTTTAGTAT [TATGA]” here?
**A.** 0.417 ± 0.028

**Q.** For “TTTTTTGCTCAGCATGCTCATTTTTTTTTTTTTTTAGTAG [GATGA]”, which background-corrected fluorescence is on record?
**A.** 0.46 ± 0.032

**Q.** For “TTTTTTGCTCAGCATGCTGATTTTTTTTTTTTTTTAGTAC [CATGA]”, which background-corrected fluorescence is on record?
**A.** 0.371 ± 0.027

**Q.** Which background-corrected fluorescence does the source give for “TTTTTTGCTCAGCATGCTGCTTTTTTTTTTTTTTTAGTAA [AATGA]” here?
**A.** 0.493 ± 0.037

**Q.** Which background-corrected fluorescence does the source give for “TTTTTTGCTCATCAGCAGCATTTTTTTTTTTTTTTAGGTT [TTGGA]” here?
**A.** 0.464 ± 0.08

**Q.** With “TTTTTTGCTCATCAGCATCATTTTTTTTTTTTTTTAGGTG [GTGGA]” as the sequence, how does the background-corrected fluorescence read?
**A.** 0.482 ± 0.017

**Q.** For “TTTTTTGCTCATCAGCATGATTTTTTTTTTTTTTTAGGTC [CTGGA]”, which background-corrected fluorescence is on record?
**A.** 0.376 ± 0.019

**Q.** With “TTTTTTGCTCATCAGCATGCTTTTTTTTTTTTTTTAGGTA [ATGGA]” as the sequence, how does the background-corrected fluorescence read?
**A.** 0.465 ± 0.06

**Q.** With “TTTTTTGCTCATCATCAGCATTTTTTTTTTTTTTTAGGGT [TGGGA]” as the sequence, how does the background-corrected fluorescence read?
**A.** 0.587 ± 0.027

**Q.** Which background-corrected fluorescence does the source give for “TTTTTTGCTCATCATCATCATTTTTTTTTTTTTTTAGGGG [GGGGA]” here?
**A.** 0.591 ± 0.028

**Q.** Which background-corrected fluorescence does the source give for “TTTTTTGCTCATCATCATGATTTTTTTTTTTTTTTAGGGC [CGGGA]” here?
**A.** 0.478 ± 0.064

**Q.** With “TTTTTTGCTCATCATCATGCTTTTTTTTTTTTTTTAGGGA” as the sequence, how does the background-corrected fluorescence read?
**A.** 0.642 ± 0.037

**Q.** With “TTTTTTGCTCATCATGAGCATTTTTTTTTTTTTTTAGGCT [TCGGA]” as the sequence, how does the background-corrected fluorescence read?
**A.** 0.435 ± 0.028

**Q.** Which background-corrected fluorescence does the source give for “TTTTTTGCTCATCATGATCATTTTTTTTTTTTTTTAGGCG [GCGGA]” here?
**A.** 0.521 ± 0.049

**Q.** For “TTTTTTGCTCATCATGATGATTTTTTTTTTTTTTTAGGCC [CCGGA]”, which background-corrected fluorescence is on record?
**A.** 0.368 ± 0.064

**Q.** For “TTTTTTGCTCATCATGATGCTTTTTTTTTTTTTTTAGGCA [ACGGA]”, which background-corrected fluorescence is on record?
**A.** 0.463 ± 0.017

**Q.** With “TTTTTTGCTCATCATGCGCATTTTTTTTTTTTTTTAGGAT” as the sequence, how does the background-corrected fluorescence read?
**A.** 0.463 ± 0.028

**Q.** With “TTTTTTGCTCATCATGCTCATTTTTTTTTTTTTTTAGGAG [GAGGA]” as the sequence, how does the background-corrected fluorescence read?
**A.** 0.507 ± 0.034

**Q.** With “TTTTTTGCTCATCATGCTGATTTTTTTTTTTTTTTAGGAC [CAGGA]” as the sequence, how does the background-corrected fluorescence read?
**A.** 0.383 ± 0.033

**Q.** With “TTTTTTGCTCATCATGCTGCTTTTTTTTTTTTTTTAGGAA [AAGGA]” as the sequence, how does the background-corrected fluorescence read?
**A.** 0.559 ± 0.021

**Q.** For “TTTTTTGCTCATGAGCAGCATTTTTTTTTTTTTTTAGCTT [TTCGA]”, which background-corrected fluorescence is on record?
**A.** 0.419 ± 0.041

**Q.** With “TTTTTTGCTCATGAGCATCATTTTTTTTTTTTTTTAGCTG [GTCGA]” as the sequence, how does the background-corrected fluorescence read?
**A.** 0.424 ± 0.058

**Q.** For “TTTTTTGCTCATGAGCATGATTTTTTTTTTTTTTTAGCTC [CTCGA]”, which background-corrected fluorescence is on record?
**A.** 0.323 ± 0.024

**Q.** Which background-corrected fluorescence does the source give for “TTTTTTGCTCATGAGCATGCTTTTTTTTTTTTTTTAGCTA [ATCGA]” here?
**A.** 0.4 ± 0.019

**Q.** With “TTTTTTGCTCATGATCAGCATTTTTTTTTTTTTTTAGCGT [TGCGA]” as the sequence, how does the background-corrected fluorescence read?
**A.** 0.52 ± 0.023

**Q.** Which background-corrected fluorescence does the source give for “TTTTTTGCTCATGATCATCATTTTTTTTTTTTTTTAGCGG [GGCGA]” here?
**A.** 0.577 ± 0.042

**Q.** For “TTTTTTGCTCATGATCATGATTTTTTTTTTTTTTTAGCGC [CGCGA]”, which background-corrected fluorescence is on record?
**A.** 0.523 ± 0.038
